Targets include HLA-A*24:02; HLA-B*07:02; HLA-A*03:01; HLA-A*01:01; HLA-B*44:02; HLA-A*02:01.
Holding throughout (test): IEDB peptide-MHC binding, purified MHC/competitive/fluorescence; filed as Kd, often an IC50 or EC50 that approximates it; ≥ and ≤ were set here for values at or beyond the usual limits of such assays
Holding throughout (conditions): source organism: Plasmodium falciparum 3D7

Turning to EWLKTCKYYC, the Kd (as a rule, a measure of binding affinity in units of concentration) in the assay with HLA-A*24:02 was not below 578 µM.

In the assay with HLA-A*24:02, NYNNDQYNI registered a Kd of 6.54 µM.

In turn, LLNSDRRDL registered a Kd with HLA-B*07:02 of 0.2 µM.

The sequence ALNLFFQNK showed a Kd with HLA-A*03:01 of 1.14 µM.

Take TTFFESVSY: the values for the Kd with HLA-A*01:01 and with HLA-A*03:01 were not below 338 µM and not below 658 µM, respectively.

With RISGWKGDNK, the Kd in the assay with HLA-A*03:01 stood at 0.548 µM.

In the assay with HLA-B*07:02, IPPQVFDYPI returned a Kd not below 245 µM.

In the case of FTNVNQFFK, the results for the Kd with HLA-A*01:01 and with HLA-A*03:01 were not below 1000 µM and 0.921 µM, respectively.

On to HPFLKSGFTF, for which the dissociation constant Kd is 10.5 µM with HLA-A*24:02, 0.226 µM with HLA-B*07:02 and not below 1000 µM in the assay with HLA-B*44:02.

With VIHYGINPV, the Kd with HLA-A*02:01 worked out at 1.7 µM.

Sequence KEEKEINDEY showed a Kd with HLA-B*44:02 not below 1000 µM.

Turning to NNNFRNNMY, the Kd with HLA-A*01:01 is not below 1000 µM.

RLNLFCFSF: the dissociation constant (Kd) with HLA-A*24:02 is 11 µM; with HLA-B*44:02, not below 1000 µM.

For the sequence STDIIFLTMK, the results for the Kd with HLA-A*01:01 and with HLA-A*03:01 were not below 1000 µM and 8.78 µM, respectively.

As to FLENFNFPL, the Kd was not below 1000 µM with HLA-A*01:01 and 3.68 µM in the assay with HLA-A*02:01.

Turning to FCFSFLKSSK, the Kd with HLA-A*03:01 came to 9.21 µM.

Consider FIDPQTEMFK, for which the Kd with HLA-A*01:01 is not below 46.6 µM; with HLA-A*03:01 it was 8.1 µM.

Take SILISRLTL: the equilibrium dissociation constant (Kd) with HLA-B*44:02 was not below 1000 µM.

In turn, MENEDVEFI returned a Kd in the assay with HLA-B*44:02 not below 36.9 µM.

For LSSNIENIY, the Kd with HLA-A*01:01 is not below 29.6 µM.

As for IWYKYTESDF, the Kd with HLA-A*24:02 worked out at 1.12 µM.

The sequence SMTNIPMNV yielded a Kd in the assay with HLA-A*02:01 of 0.244 µM.

In the case of RSKKTFLVK, the Kd with HLA-A*03:01 came out at 0.409 µM.

In the assay with HLA-B*44:02, DENLKAIQI registered a Kd not below 91.3 µM.

Regarding LPIEPKKLA, the Kd in the assay with HLA-B*07:02 is not below 561 µM.

YESQLGGKI had a dissociation constant (Kd) in the assay with HLA-B*44:02 not below 66.3 µM.

The sequence TEYFKNKNM displayed a Kd with HLA-B*44:02 not below 31.4 µM.

SISDYTKSL: the Kd with HLA-A*02:01 was not below 352 µM.

As to ITNKNKVTIY, the Kd with HLA-A*01:01 was not below 1000 µM; with HLA-A*03:01 it was 8.72 µM.

SLTHKYNEFV gave a dissociation constant Kd with HLA-A*02:01 not below 182 µM.

YPIEKLGHV: the Kd in the assay with HLA-B*07:02 came to 0.257 µM.

As for WLNNDIYNV, the Kd with HLA-A*02:01 amounted to 0.16 µM.

For KPNFWRFQDY, the Kd with HLA-B*07:02 was not below 1000 µM.

Turning to RNIISKHTSV, the Kd with HLA-B*07:02 is not below 505 µM.

KLPPLLNEI: the values for the Kd with HLA-A*02:01 and in the assay with HLA-A*24:02 were 2.66 µM and 0.0887 µM, respectively.

Take SKHPFLKSGF: the Kd with HLA-B*44:02 was not below 1000 µM.

Take ASFSASTGY: the Kd was not below 1000 µM in the assay with HLA-A*01:01, 2.37 µM with HLA-A*03:01 and not below 31.7 µM in the assay with HLA-B*44:02.

Sequence HYGINPVQL returned a Kd with HLA-A*24:02 of 6.79 µM.

MYHNKEFDF had a Kd in the assay with HLA-A*24:02 of 4.51 µM.

On to NTVKCPNDY, for which, in the assay with HLA-A*01:01, the Kd was not below 282 µM.

For SIASKNLMWV, the Kd with HLA-A*02:01 is not below 284 µM; with HLA-A*03:01, not below 1000 µM; with HLA-B*07:02, not below 1000 µM.

In the assay with HLA-A*24:02, SLTHKYNEF came in with a Kd of 12.6 µM.

DDTFEVYSEY: the Kd with HLA-A*01:01 and in the assay with HLA-B*44:02 was not below 1000 µM throughout.

For the sequence IYGKGGFQF, the Kd in the assay with HLA-A*24:02 came to 0.163 µM.

Regarding ILISRLTLK, the Kd with HLA-A*03:01 came out at 0.22 µM.

In the assay with HLA-B*44:02, AEISRNDLI had a Kd of 4.53 µM.

In the case of KMKSDQYPI, the Kd with HLA-A*02:01 came to 3.07 µM; in the assay with HLA-A*24:02 it was 6.9 µM.

On to DTFEVYSEY, for which the Kd with HLA-A*01:01 and with HLA-A*03:01 was not below 1000 µM throughout.

Turning to NLFEWSKTV, in the assay with HLA-A*02:01, the Kd was found to be 1.62 µM.

Regarding LFGDENFSF, in the assay with HLA-A*24:02, the Kd came out at 5.87 µM.

Take FDNSGISLL: the Kd with HLA-A*02:01 was not below 229 µM; with HLA-B*44:02 it was not below 1000 µM.

For the sequence HYNTYKNRVF, in the assay with HLA-A*24:02, the Kd is 3 µM.

Consider NEEIIDLLNL, for which the Kd with HLA-B*44:02 is not below 433 µM.

For the sequence IENNLYERL, the Kd with HLA-B*44:02 was not below 60.1 µM.

For the sequence DSDDLKESY, in the assay with HLA-A*01:01, the Kd worked out at 2.6 µM.

In the assay with HLA-A*01:01, LISRLTLKY registered a Kd of 11.5 µM.

Consider RLNNRSIYK, for which the Kd with HLA-A*03:01 was 0.224 µM.

Turning to NPVQLKSKF, the equilibrium dissociation constant (Kd) with HLA-B*07:02 was not below 59.6 µM.

SESTSTYNT had a Kd in the assay with HLA-B*44:02 not below 103 µM.

The sequence NYKQNNFPF showed a Kd in the assay with HLA-A*24:02 of 9.49 µM.

GIANDLSTL: the Kd in the assay with HLA-A*02:01 stood at 5.73 µM.

In the assay with HLA-B*44:02, NENNTTYQY showed a Kd of 18.4 µM.

Consider FPKLLNKPSL, for which the Kd with HLA-B*07:02 was not below 73.1 µM.

RSSGSTFSIK: the dissociation constant Kd with HLA-A*03:01 was found to be 0.326 µM.

In the assay with HLA-A*24:02, YGKGGFQFVF came in with a Kd of 0.231 µM.

In the assay with HLA-A*24:02, SHPKYRNFKF came in with a Kd of 16.6 µM.

In the assay with HLA-A*02:01, FLLNLLNEHV showed a Kd of 1.68 µM.

In the case of KTCKYYCFK, in the assay with HLA-A*03:01, the Kd is not below 116 µM.

With NTFDALYYV, the figures for the Kd with HLA-A*01:01 and in the assay with HLA-A*02:01 were not below 1000 µM and 8.76 µM, respectively.

In turn, KYDPRISGW gave a Kd with HLA-A*24:02 of 5.01 µM.

Sequence LLFQKAANL returned an equilibrium dissociation constant (Kd) with HLA-A*02:01 of 1.88 µM.

Regarding LTHKYNEFV, the figures for the Kd in the assay with HLA-A*01:01 and with HLA-A*02:01 were not below 174 µM and 2.41 µM, respectively.

In the case of TIYGKGGFQF, the Kd with HLA-B*07:02 was not below 109 µM.

For LTMKMINNK, the Kd with HLA-A*03:01 is 0.472 µM.

NSPNVNKRY: the Kd in the assay with HLA-A*01:01 was not below 1000 µM.

With FPPNTFDAL, the Kd with HLA-B*07:02 was determined as 2.72 µM.

For TMANQNMNY, the dissociation constant (Kd) is 2.02 µM in the assay with HLA-A*01:01 and 0.943 µM in the assay with HLA-A*03:01.

With SPHDTMQKDD, the Kd with HLA-B*07:02 is not below 1000 µM.

Take TSKQGSSNKY: the Kd with HLA-A*01:01 is not below 1000 µM.

Consider YTIGLPPYI, for which the values for the Kd with HLA-A*02:01 and in the assay with HLA-A*24:02 were 2.46 µM and 6.57 µM, respectively.

For HPKYRNFKF, in the assay with HLA-B*07:02, the Kd was found to be 0.336 µM.

As to GLSPHDTMQK, the Kd in the assay with HLA-A*03:01 came to 1.1 µM.

As for TEMFKLRLNL, the Kd is not below 58.2 µM in the assay with HLA-A*24:02, not below 1000 µM with HLA-B*07:02 and not below 54.8 µM in the assay with HLA-B*44:02.

With LISTDIIFL, in the assay with HLA-A*02:01, the Kd came to 0.614 µM.

Consider QVFDYPIEK, for which the dissociation constant (Kd) in the assay with HLA-A*03:01 was found to be 1.57 µM.

In the assay with HLA-A*01:01, SSANDEQSY displayed a Kd not below 65 µM.

On to ILYKNIDCV, for which the Kd with HLA-A*02:01 turned out to be 1.4 µM.

The sequence PFLKSGFTF had a Kd with HLA-A*24:02 of 8.32 µM.

For the sequence YYPIIRKQF, in the assay with HLA-A*24:02, the Kd is 0.101 µM.

Turning to TMANQNMNYK, the Kd with HLA-A*03:01 amounted to 0.209 µM.

Take KNYDNYNMK: the Kd with HLA-A*03:01 was 2.51 µM.

CRDKTSALY: the Kd with HLA-A*01:01 is not below 1000 µM.

In the assay with HLA-A*02:01, NLFFQNKSI yielded a Kd not below 1000 µM.

In the assay with HLA-B*44:02, EENLFEWSKT displayed a Kd not below 1000 µM.

Consider RLNLFCFSFL, for which the equilibrium dissociation constant (Kd) was not below 161 µM with HLA-A*02:01, 6.12 µM with HLA-A*03:01 and not below 421 µM in the assay with HLA-B*44:02.

In the case of HPMPINIKL, in the assay with HLA-B*07:02, the Kd was 0.168 µM.

In turn, TYSIYTNFKN came in with a Kd with HLA-A*24:02 not below 26.6 µM.

In the assay with HLA-A*02:01, YITNKNKVTI returned a Kd not below 1000 µM.

With NMNYKQNNF, the Kd in the assay with HLA-A*24:02 was 14.7 µM.

Sequence NSDKLDLIY showed a Kd with HLA-A*01:01 of 0.875 µM.

NMYQQNIPL: the Kd with HLA-A*02:01 is not below 331 µM.

MDFPKLLNK came in with a dissociation constant (Kd) in the assay with HLA-A*03:01 of 2.08 µM.

Take KEDDTFEVY: the Kd in the assay with HLA-A*01:01 is not below 1000 µM.

For the sequence KLYSINSKSI, the Kd was not below 57.7 µM in the assay with HLA-A*02:01 and not below 225 µM in the assay with HLA-B*07:02.

The sequence NLNLCGKYTK had an equilibrium dissociation constant (Kd) in the assay with HLA-A*03:01 not below 1000 µM.

Values taken from the Immune Epitope Database (IEDB).
